The nature of the data set: label from the status in PepcDB records.

With “MAAIPALDPEAEPSMDVILVGSSELSSSVSPGTGRDLIAYEVKANQRNIEDICICCGSLQVHTQHPLFEGGICAPCKDKFLDALFLYDDDGYQSYCSICCSGETLLICGNPDCTRCYCFECVDSLVGPGTSGKVHAMSNWVCYLCLPSSRSGLLQRRRKWRSQLKAFYDRESENPLEMFETVPVWRRQPVRVLSLFEDIKKELTSLGFLESGSDPGQLKHVVDVTDTVRKDVEEWGPFDLVYGATPPLGHTCDRPPSWYLFQFHRLLQYARPKPGSPRPFFWMFVDNLVLNKEDLDVASRFLEMEPVTIPDVHGGSLQNAVRVWSNIPAIRSSRHWALVSEEELSLLAQNKQSSKLAAKWPTKLVKNCFLPLREYFKYFSTELTSSL”, the protein production result is reported as “failed”.

As for “MAAITTGVVLLRWQLLSAVLMFLASTLNIRFRKSDYIGLAVISSGLGVVSACWFATGLLGITMMDLAAIWHNIEAVMVETMSQTPPEWPMVLT”, the protein production result is “failed”.

In the case of “MAAKLEKTTNSFEVITREWYAKFSPTWNESHGERIIRRFERDIFPWIGSKPISEIAAPELLATVRRIESRGAVETAHRALGNCGQVFRYAIATARATRDISADLRGALPPVKGEHLEHHHHHH”, the protein production entry is listed as “not failed”.

For “MAAKQGESDPERKETRQKVDDDRKHEIEAAIVRIMKSRKKMQHNVLVAEVTQQLKARFLPSPVVIKKRIEGLIEREYLARTPEDRKVYTYVA”, the protein production result is reported as “not failed”. Regarding “MAAPEAEVLSSAAVPDLEWYEKSEETHASQIELLETSSTQEPLNASEAFCPRDCMVPVVFPGPVSQEGCCQFTCELLKHIMYQRQQLPLPYEQLKHFYRKPSPQAEEMLKKKPRATTEVSSRKCQQALAELESVLSHLEDFFARTLVPRVLILLGGNALSPKEFYELDLSLLAPYSVDQSLSTAACLRRLFRAIFMADAFSELQAPPLMGTVVMAQGHRNCGEDWFRPKLNYRVPSRGHKLTVTLSCGRPSIRTTAWEDYIWFQAPVTFKGFRE”, the protein production result is “not failed”. In the case of “MAAQVEIEDQESVTNLDNGEIINPISDNAPNFSGDATILLREATFEHNLIKNCFLSGMGSFATETTIVTVRKILTQRLITTKAKFAVFKLFTEAMKRKNNGYANIRYGWYSGSKEEIDRVITYGFSNREIKKVENDVGSHGVGIHLVHHRYSLAAALVGEGDEEGIKNILLCRVILGKPEQIVTGSKQSYPSSNQFDSGVDNLENPRKYVIWSCNMNSYILPTYIVSFKSHLLRGLIGRARSPCVSFSVLMSILSKSLDAARMNLILTSYDDFRKRKLRREQLVRKIREVVGDNLLFKILKNQRR”, the protein production result is reported as “not failed”.

Turning to “MAARNAFYAQSGGVTAVINASACGVLETARQYPDRIGTVYAGRNGIVGALTEDLIDTGQESAEAIAALRHTPSGAFGSCRYKLKGLEENRAQYERLIEVFRAHDIGYFFYNGGGDSADTCLKVSQLSEKLGYPLQAVHIPKTVDNDLPITDCCPGFGSVAKYIAVSVREASFDVRSMAATSTCIFVLEVMGRHAGWIAAAGGLASDERHELALVILFPEQVFDPERFLRAVDEKVRSHGYCSVVVSEGIRGADGRFVAESGSRDVFGHARLGGVAPVIADLIKERLGYKYHWAVADYLQRAARHIASRTDVEQAYAVGKAGVEMALKGLSAVMPAIVRTSDSPYRWEITAASLAEVANVEKKMPLEFISADGFGITEACRRYLRPLIEGEDYPPYAGGLPDYVTLCNVAVPKKLAASFSV”, the protein production result was “failed”. Regarding “MAASAAATAAASAATAASAASGSPGSGEGSAGGEKRPAASSAAAASAAASSPAGGGGEAQELLEHCGVCRERLRPERDPRLLPCLHSACSACLGPATPAAANNSGDGGSAGDGAMVDCPVCKQQCYSKDIVENYFMRDSGSKASSDSQDANQCCTSCEDNAPATSYCVECSEPLCETCVEAHQRVKYTKDHTVRSTGPAKTRDGERTVYCNVHKHEPLVLFCESCDTLTCRDCQLNAHKDHQYQFLEDAVRNQRKLLASLVKRLGDKHATLQKNTKEVRSSIRQVSDVQKRVQVDVKMAILQIMKELNKRGRVLVNDAQKVTEGQQERLERQHWTMTKIQKHQEHILRFASWALESDNNTALLLSKKLIYFQLHRALKMIVDPVEPHGEMKFQWDLNAWTKSAEAFGKIVAERPGTNSTGPGPMAPPRAPGPLSKQGSGSSQPMEVQEGYGFGSDDPYSSAEPHVSGMKRSRSGEGEVSGLLRKVPRVSLERLDLDLTSDSQPPVFKVFPGSTTEDYNLIVIERGAAAAAAGQAGTVPPGAPGAPPLPGMAIVKEEETEAAIGAPPAAPEGPETKPVLMPLTEGPGAEGPRLASPSGSTSSGLEVVAPEVTSAPVSGPGILDDSATICRVCQKPGDLVMCNQCEFCFHLDCHLPALQDVPGEEWSCSLCHVLPDLKEEDGSLSLDGADSTGVVAKLSPANQRKCERVLLALFCHEPCRPLHQLATDSTFSMEQPGGTLDLTLIRARLQEKLSPPYSSPQEFAQDVGRMFKQFNKLTEDKADVQSIIGLQRFFETRMNDAFGDTKFSAVLVEPPPLNLPSAGLSSQELSGPGDGP”, the protein production entry is recorded as “not failed”. As for “MAASLSEGVPETEDRKRPQFGNRFLSDPARVFHHNAWDNVKWSEEQAAAAERKVQENSSQLVCPEKQADYEVNAHKYWDDFYKVHENGFFKDRHWLFTEFPELAPSHDHLVNLHLEKQKNEVSKPRSSEDGPGLAAEQHKRPCTSHGCETRVPPVEEPVTQKLTHLEICADDFPGSSATYRILEVGCGVGNTVFPILQTNNNPDLFVYCCDFSATAIELVKTNSEYDPSRCFAFVHDLCDEDQSYPMPKDSLDVIVLIFVLSAIVPDKMQKAISKLSRLLKPGGVMLLRDYGRYDMAQLRFKKGQCLSGNFYVRGDGTRVYFFTQDELDTLFTAAGLEKVQNVVDRRLQVNRGKQLTMYRVWIQCKYSKPLVPSASQHVPTPHTTXVLRIWGFC”, the protein production result is recorded as “failed”.

For the sequence “MAATAREDGASGQERGQRGCEHYDRGCLLKAPCCDKLYTCRLCHDNNEDHQLDRFKVKEVQCINCEKIQHAQQTCEECSTLFGEYYCDICHLFDKDKKQYHCENCGICRIGPKEDFFHCLKCNLCLAMNLQGRHKCIENVSRQNCPICLEDIHTSRVVAHVLPCGHLLHRTCYEEMLKEGYRCPLCMHSALDMTRYWRQLDDEVAQTPMPSEYQNMTVDILCNDCNGRSTVQFHILGMKCKICESYNTAQAGGRRISLDQQ”, the protein production entry was “failed”. In the case of “MAATASPQPLATEDADAENSSFYYYDYLDEVAFMLCRKDAVVSFGKVFLPVFYSLIFVLGLSGNLLLLMVLLRYVPRRRMVEIYLLNLAISNLLFLVTLPFWGISVAWHWVFGSFLCKMVSTLYTINFYSGIFFISCMSLDKYLEIVHAQPYHRLRTRAKNLLLATIVWAVSLAVSIPDMVFVQTHENPKGVWNYHADFGGHGTIWKLFLRFQQNLLGFLLPLLGMIFFYSRIGCVLVRLRPAGQGRALKIAAALVVAFFVLWFPYNLTLFLHTLLDLQVFGNCEVSQHLDYALQVTESIAFLHCCFSPILYAFSSHRFRQYLKAFLAAVLGWHLAPGTAQASLSSCSESSILTALEEMTGMNDLGERQSENYPNKEDVGNKSA”, the protein production result was “failed”.

“MAAVRKIHVTVKFPSKQFTVEVDRTETVSSLKDKIHIVENTPIKRMQLYYSGIELADDYRNLNEYGITEFSEIVVFLKSINRAKD”: the protein production entry is recorded as “not failed”. As to “MAAWVCILGQMKPDPETKPDPMRQTAQPAPQRLLRHLPLIVIVLIAVIGAITLRDYLSFDTLAANRQALLAYREAHYAALAAIFVATYVLIVAFSLPGAAVASMTGGFLFGLAVGTVLNVVAATIGAVAIFLAARAGLGAMLTARLEASEGTVKRLKEGLRRNEIEVLFLLRLVPAVPFFAANLIPALVGVKLRNYVLTTALGIVPGAIVFTWIGVGLGGVFDRGESPDLSLFREPFVIGPILGLCLLAALPIAIKALRGKPEGE”, the protein production entry is reported as “failed”. In the case of “MACHELSALRIAIGELLEKEAHDLLHEREELAPVLGQRPELKRLAEAKTLPALEEALREALLHLEERAAQEPEEPYWRGLLLAVEAMEGRLKALRAEAEALYQDLDALHGRLHRLFPRRR”, the protein production result is “not failed”. Turning to “MADHNNTPPFDLTKLDHYIKYQPREEAEDFFVHVEVKVLGKGSSPLEISFSTSVYEFVWEDEDCYELVELYEFFTEDAGIDAFEAQFLVNDLILYVNKTTRPLDEDFTGVFKLMAEVTLKPVQLNHAGSQKTESQQP”, the protein production result is on record as “failed”. On to “MADIIGLLLPFFGLIFIGYGAARITKQPVEAMGWLNTFIIYAALPALFFKLVSKTPVEELARMDFVAASLACTYGIFLAVFLIGRFVRRNSLAETTIQSFAASYGNIGYMGPGLALLALGEKAAVPVALIVCLENAAHFIVAPAMMAVAGGDKRSAGKLALDVARKVITHPFIVSVIAGFLAASLSWQPPEAVQRLVDYLAQSAAPCALFAMGVTLALRPMKRVPVEISYIVPAKLILHPLAAYLVLSSLGRFEPVWIYSAVLLAALPTATNVFVIGQQYHVWQERASATILISTVLSVFTLTGVVYFIQPF”, for which the protein production entry was “failed”. Turning to “MADIPKSPTEPNKPVDTKLQVDPNTPVDPKPPVVEPKPPVVDPKPPVVDPKPPEPTHPTITVSPKTGDILVEWYAGNGKYYSSVFFNDFYTSQKELDENALNNLTNYYSKKEDWTLVSQLNTPSKSKSVAEHKLALDNVEQILTSGEYSNERALFYLRNQMNVLNESVTTQEELQRYLSENKKDYIKSVAEKVYQTATEEKREWSNTGDVASLEQALSKFYLVTSVFESVDPALV”, the protein production entry was “failed”.

Consider “MADKEKKKKESILDLSKYIDKTIRVKFQGGREASGILKGFDPLLNLVLDGTIEYMRDPDDQYKLTEDTRQLGLVVCRGTSVVLICPQDGMEAIPNPFIQQQDA”, for which the protein production result is listed as “failed”. Then “MADKQPAVNRVVAALLVGGALIAAGYAIRHTVSCFLLSFVTAYLLDPVLVVMERRGVRRPWGILFLYALLAVFSVFFFIVLVPFLSLRWEAFITGLPAYLQKGKQIVFAWKSRAVPPYAVEEWRWLFDTAAGQADKLLAKLGAGVYAAAEGLVFNLFNLVLAPILVFFMLWYKKEFMETAAAWLPASRREVLLALGREVNESIGGYIRGQFMVSVIVAVLSTVALFVIGIDYPIVNGIFAGLASVLPFIGVILATLPPLFFAYVQYESGMVLLQVIGAFSVIYFLEGYLVKPLVFKESMDLNPLVTIIVVMVFGELMGFWGILLAIPIAAAVRAAADHLRRGDFRS”, with “failed”. Then “MADLTHEFWDRLEDVRSGMLGIKGQGRLIPMSPQTDDDAPGAIWFITAKGTDLAKGVAAGPQPAQFVVSDDGEGLYADLDGTLERSTDREALDEFWSFVADAWFDGGQHDPDVCLLKFTPASGEISITEGGGARFLYEIAKAHLTDETPDMGEQATVTF”, with “not failed”; and “MADNINESEIIERLNSAPSVRGFFIATVDVFNESIDGLIQRIFRKDNFAVQSVVGPLLQDSGPLGDLSVRLKLLFGLGVLPDDIYHDIEDIIKLKNHLNSDASDYEFTDPNILEPIKKLHLVKKMGMVQLEVNEPDDDIDLEFYQLQLQRQQQIIKSGLSLAIVEICNELGK”, with “not failed”; and “MADNKVNLSINGQSKVPPGFRFHPTEEELLHYYLRKKVNSQKIDLDVIREVDLNKLEPWDIQEECRIGSTPQNDWYFFSHKDKKYPTGTRTNRATVAGFWKATGRDKIICSCVRRIGLRKTLVFYKGRAPHGQKSDWIMHEYRLDDTPMSNGYADVVTEDPMSYNEEGWVVCRVFRKKNYQKIDDCPKITLSSLPDDTEEEKGPTFHNTQNVTGLDHVLLYMDRTGSNICMPESQTTTQHQDDVLFMQLPSLETPKSESPVDQSFLTPSKLDFSPVQEKITERPVCSNWASLDRLVAWQLNNGHHNPCHRKSFDEEEENGDTMMQRWDLHWNNDDNVDLWSSFTESSSSLDPLLHLSV”, with “failed”.
